Legend:
Details in all cases: Enterobacter cloacae
[1] = substrate: CO/N=C(\C(=O)N[C@@H]1C(=O)N2C(C(=O)[O-])=C(C[N+]3(C)CCCC3)CS[C@H]12)c1csc(N)n1
Description: (§1) Ratio of Kcat to Km of Enterobacter cloacae 908R AmpC assessed as drug hydrolysis by spectrophotometry

[2] = substrate: CC1(C)S[C@@H]2[C@H](NC(=O)Cc3ccccc3)C(=O)N2[C@H]1C(=O)O
Description: as §1

[3] = substrate: Nc1nc(/C(=N/O)C(=O)N[C@@H]2C(=O)N3C(C(=O)O)=C(/C=C4\CCN([C@@H]5CCNC5)C4=O)CS[C@H]23)ns1
Description: as §1

[4] = substrate: O=C(Cc1cccs1)N[C@@H]1C(=O)N2C(C(=O)[O-])=C(C[n+]3ccccc3)CS[C@H]12
Description: as §1

[5] = substrate: CC(C)(O/N=C(\C(=O)N[C@@H]1C(=O)N2C(C(=O)[O-])=C(C[n+]3ccccc3)CS[C@H]12)c1csc(N)n1)C(=O)O
Description: as §1

[6] = substrate: CO/N=C(\C(=O)N[C@@H]1C(=O)N2C(C(=O)[O-])=C(C[N+]3(C)CCCC3)CS[C@H]12)c1csc(N)n1; remark: listed apart in the source
Description: (§2) Activity of Enterobacter cloacae 4092 AmpC (E2) assessed as drug hydrolysis by spectrophotometry

[7] = substrate: CC1(C)S[C@@H]2[C@H](NC(=O)Cc3ccccc3)C(=O)N2[C@H]1C(=O)O; remark: listed apart in the source
Description: as §2

[8] = substrate: O=C(Cc1cccs1)N[C@@H]1C(=O)N2C(C(=O)O)=C(/C=C/c3ccc([N+](=O)[O-])cc3[N+](=O)[O-])CS[C@H]12
Description: as §2

[9] = substrate: Nc1nc(/C(=N/O)C(=O)N[C@@H]2C(=O)N3C(C(=O)O)=C(/C=C4\CCN([C@@H]5CCNC5)C4=O)CS[C@H]23)ns1; remark: listed apart in the source
Description: as §2

[10] = substrate: O=C(Cc1cccs1)N[C@@H]1C(=O)N2C(C(=O)[O-])=C(C[n+]3ccccc3)CS[C@H]12; remark: listed apart in the source
Description: as §2

[11] = substrate: CC(C)(O/N=C(\C(=O)N[C@@H]1C(=O)N2C(C(=O)[O-])=C(C[n+]3ccccc3)CS[C@H]12)c1csc(N)n1)C(=O)O; remark: listed apart in the source
Description: as §2

[12] = substrate: Nc1nc(/C(=N/O)C(=O)N[C@@H]2C(=O)N3C(C(=O)O)=C(/C=C4\CCN([C@@H]5CCNC5)C4=O)CS[C@H]23)ns1; remark: listed apart in the source
Description: (§3) Ratio of Kcat to Km of Enterobacter cloacae 4080 AmpC (P99) assessed as drug hydrolysis by spectrophotometry

[13] = substrate: O=C(Cc1cccs1)N[C@@H]1C(=O)N2C(C(=O)[O-])=C(C[n+]3ccccc3)CS[C@H]12; remark: listed apart in the source
Description: as §3

[14] = substrate: CC(C)(O/N=C(\C(=O)N[C@@H]1C(=O)N2C(C(=O)[O-])=C(C[n+]3ccccc3)CS[C@H]12)c1csc(N)n1)C(=O)O; remark: listed apart in the source
Description: as §3

[15] = substrate: CO/N=C(\C(=O)N[C@@H]1C(=O)N2C(C(=O)[O-])=C(C[N+]3(C)CCCC3)CS[C@H]12)c1csc(N)n1; remark: listed apart in the source
Description: (§4) Ratio of Kcat to Km of Enterobacter cloacae 4092 AmpC (E2) assessed as drug hydrolysis by spectrophotometry

[16] = substrate: CC1(C)S[C@@H]2[C@H](NC(=O)Cc3ccccc3)C(=O)N2[C@H]1C(=O)O; remark: listed apart in the source
Description: as §4

[17] = substrate: O=C(Cc1cccs1)N[C@@H]1C(=O)N2C(C(=O)O)=C(/C=C/c3ccc([N+](=O)[O-])cc3[N+](=O)[O-])CS[C@H]12; remark: listed apart in the source
Description: as §4

[18] = substrate: Nc1nc(/C(=N/O)C(=O)N[C@@H]2C(=O)N3C(C(=O)O)=C(/C=C4\CCN([C@@H]5CCNC5)C4=O)CS[C@H]23)ns1; remark: listed apart in the source
Description: as §4

[19] = substrate: O=C(Cc1cccs1)N[C@@H]1C(=O)N2C(C(=O)[O-])=C(C[n+]3ccccc3)CS[C@H]12; remark: listed apart in the source
Description: as §4

[20] = substrate: CC(C)(O/N=C(\C(=O)N[C@@H]1C(=O)N2C(C(=O)[O-])=C(C[n+]3ccccc3)CS[C@H]12)c1csc(N)n1)C(=O)O; remark: listed apart in the source
Description: as §4

[21] = substrate: CO/N=C(\C(=O)N[C@@H]1C(=O)N2C(C(=O)[O-])=C(C[N+]3(C)CCCC3)CS[C@H]12)c1csc(N)n1; remark: listed apart in the source
Description: (§5) Activity of Enterobacter cloacae 908R AmpC assessed as drug hydrolysis by spectrophotometry

[22] = substrate: CC1(C)S[C@@H]2[C@H](NC(=O)Cc3ccccc3)C(=O)N2[C@H]1C(=O)O; remark: listed apart in the source
Description: as §5

[23] = substrate: Nc1nc(/C(=N/O)C(=O)N[C@@H]2C(=O)N3C(C(=O)O)=C(/C=C4\CCN([C@@H]5CCNC5)C4=O)CS[C@H]23)ns1; remark: listed apart in the source
Description: as §5

[24] = substrate: O=C(Cc1cccs1)N[C@@H]1C(=O)N2C(C(=O)[O-])=C(C[n+]3ccccc3)CS[C@H]12; remark: listed apart in the source
Description: as §5

[25] = substrate: CC(C)(O/N=C(\C(=O)N[C@@H]1C(=O)N2C(C(=O)[O-])=C(C[n+]3ccccc3)CS[C@H]12)c1csc(N)n1)C(=O)O; remark: listed apart in the source
Description: as §5

B1: Beta-lactamase (Enterobacter cloacae), P05364 (protein)
chain: MMRKSLCCALLLGISCSALATPVSEKQLAEVVANTITPLMKAQSVPGMAVAVIYQGKPHYYTFGKADIAANKPVTPQTLFELGSISKTFTGVLGGDAIARGEISLDDAVTRYWPQLTGKQWQGIRMLDLATYTAGGLPLQVPDEVTDNASLLRFYQNWQPQWKPGTTRLYANASIGLFGALAVKPSGMPYEQAMTTRVLKPLKLDHTWINVPKAEEAHYAWGYRDGKAVRVSPGMLDAQAYGVKTNVQDMANWVMANMAPENVADASLKQGIALAQSRYWRIGSMYQGLGWEMLNWPVEANTVVEGSDSKVALAPLPVAEVNPPAPPVKASWVHKTGSTGGFGSYVAFIPEKQIGIVMLANTSYPNPARVEAAYHILEALQ
For B1, the kcat/Km [1] was 0.075 s⁻¹ µM⁻¹, the kcat/Km [2] was 8.8 s⁻¹ µM⁻¹ and the kcat/Km [3] was 0.038 s⁻¹ µM⁻¹. For the same protein, the kcat/Km [4] was 8.9 s⁻¹ µM⁻¹, the kcat/Km [5] was 0.66 s⁻¹ µM⁻¹ and the Km [6] was > 630 µM. For the same protein, the kcat [6] was < 0.021 s⁻¹, the Km [7] was 8.3 µM and the kcat [7] was 65 s⁻¹. It also gave a Km [8] of 56 µM, a kcat [8] of 570 s⁻¹ and a Km [9] of 26 µM. The kcat [9] was < 0.057 s⁻¹, the Km [10] was 480 µM and the kcat [10] was 690 s⁻¹. It also gave a Km [11] of 110 µM, a kcat [11] of 0.16 s⁻¹ and a kcat/Km [12] of 0.022 s⁻¹ µM⁻¹. For the same protein, the kcat/Km [13] was 7.6 s⁻¹ µM⁻¹, the kcat/Km [14] was 0.0072 s⁻¹ µM⁻¹ and the kcat/Km [15] was < 3.3e-05 s⁻¹ µM⁻¹. For the same protein, the kcat/Km [16] was 7.8 s⁻¹ µM⁻¹, the kcat/Km [17] was 10 s⁻¹ µM⁻¹ and the kcat/Km [18] was < 0.0022 s⁻¹ µM⁻¹. The kcat/Km [19] was 1.5 s⁻¹ µM⁻¹, the kcat/Km [20] was 0.0015 s⁻¹ µM⁻¹ and the Km [21] was 16 µM. The kcat [21] was 0.82 s⁻¹, the Km [22] was 6 µM and the kcat [22] was 53 s⁻¹. It also gave a Km [23] of 12 µM, a kcat [23] of 0.45 s⁻¹ and a Km [24] of 360 µM. For the same protein, the kcat [24] was 3200 s⁻¹, the Km [25] was 3.5 µM and the kcat [25] was 2.3 s⁻¹.

Reference: ChEMBL document CHEMBL1143427, “Interactions of ceftobiprole with beta-lactamases from molecular classes A to D” (Antimicrob Agents Chemother, 2007)
